Test results reported in paper PMC10197580 (bioRxiv, 2023).
Like-named read-outs stand apart in the source and are kept apart here. Each block holds one binder with its values, some of them ahead of it.

What was measured:
His6-MBP-Ctc1 [1] = molecular target: T1, His6-MBP-Ctc1 (human, UniProt Q2NKJ3 1-1217); assay: cryo-EM structure
T1 sequence: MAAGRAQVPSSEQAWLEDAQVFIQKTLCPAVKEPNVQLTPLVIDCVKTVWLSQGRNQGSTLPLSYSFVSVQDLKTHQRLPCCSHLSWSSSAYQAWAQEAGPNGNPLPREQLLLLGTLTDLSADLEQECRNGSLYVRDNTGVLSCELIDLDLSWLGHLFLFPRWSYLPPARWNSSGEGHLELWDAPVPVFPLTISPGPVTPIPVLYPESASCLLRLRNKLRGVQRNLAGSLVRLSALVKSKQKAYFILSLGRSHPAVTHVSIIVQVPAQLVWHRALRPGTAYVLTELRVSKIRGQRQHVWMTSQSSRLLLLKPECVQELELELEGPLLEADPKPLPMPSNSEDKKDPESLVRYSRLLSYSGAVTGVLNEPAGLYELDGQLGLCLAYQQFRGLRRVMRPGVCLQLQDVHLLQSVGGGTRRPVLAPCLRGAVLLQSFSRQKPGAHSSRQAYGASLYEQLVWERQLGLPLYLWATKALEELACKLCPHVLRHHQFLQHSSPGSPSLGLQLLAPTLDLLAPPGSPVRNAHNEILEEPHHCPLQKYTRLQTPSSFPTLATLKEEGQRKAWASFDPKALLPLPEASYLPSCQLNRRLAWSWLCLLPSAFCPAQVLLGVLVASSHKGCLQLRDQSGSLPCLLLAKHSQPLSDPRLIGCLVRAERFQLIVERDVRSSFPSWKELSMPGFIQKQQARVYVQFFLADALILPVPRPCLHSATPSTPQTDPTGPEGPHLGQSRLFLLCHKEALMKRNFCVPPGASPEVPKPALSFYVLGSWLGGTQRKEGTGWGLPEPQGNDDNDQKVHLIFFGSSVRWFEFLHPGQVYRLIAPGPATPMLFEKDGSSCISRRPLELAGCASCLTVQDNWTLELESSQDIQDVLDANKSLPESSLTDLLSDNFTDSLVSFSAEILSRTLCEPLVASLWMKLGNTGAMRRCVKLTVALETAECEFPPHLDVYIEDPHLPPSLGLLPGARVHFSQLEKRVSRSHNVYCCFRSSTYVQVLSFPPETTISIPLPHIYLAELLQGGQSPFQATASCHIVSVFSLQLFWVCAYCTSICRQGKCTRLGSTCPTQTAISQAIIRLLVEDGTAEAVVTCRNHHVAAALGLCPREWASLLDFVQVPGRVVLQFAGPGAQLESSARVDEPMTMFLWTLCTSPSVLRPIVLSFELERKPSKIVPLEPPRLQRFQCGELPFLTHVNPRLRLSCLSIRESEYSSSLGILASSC

His6-MBP-Ctc1/Stn1/Ten1 [2] = molecular target: T2, His6-MBP-Ctc1/Stn1/Ten1 (human, UniProt Q2NKJ3;Q9H668;Q86WV5); assay: SEC
His6-MBP-Ctc1/Stn1/Ten1 [3] = molecular target: T2, His6-MBP-Ctc1/Stn1/Ten1; assay: cryo-EM structure
[4] = molecular target: CST with the His6-MBP tag cleaved (human, UniProt Q2NKJ3;Q9H668;Q86WV5); assay: negative-stain EM
His6-MBP-Ctc1 [5] = molecular target: T1, His6-MBP-Ctc1; assay: cryo-EM structure; remark: listed apart in the source
[6] = molecular target: T3, TwinStrep-GFP-TPP1 OB+RD (aa 1–251) (human, UniProt Q96AP0 1-251); assay: cryo-EM structure
T3 sequence: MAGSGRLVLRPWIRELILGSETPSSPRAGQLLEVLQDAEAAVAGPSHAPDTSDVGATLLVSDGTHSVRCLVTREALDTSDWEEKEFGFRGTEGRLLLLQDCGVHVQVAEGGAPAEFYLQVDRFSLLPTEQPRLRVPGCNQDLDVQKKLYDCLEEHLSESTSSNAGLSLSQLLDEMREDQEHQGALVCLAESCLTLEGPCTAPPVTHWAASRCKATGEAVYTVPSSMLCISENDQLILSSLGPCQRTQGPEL

T2 sequence (Q86WV5 whole entry, one chain of several): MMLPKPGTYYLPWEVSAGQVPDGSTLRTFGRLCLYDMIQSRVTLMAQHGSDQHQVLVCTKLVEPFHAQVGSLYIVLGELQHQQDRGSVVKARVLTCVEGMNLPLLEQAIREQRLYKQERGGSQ
Sequence of CST with the His6-MBP tag cleaved (Q86WV5 whole entry, one chain of several): as above

B2: POT1(SED)/GFP-TPP1 (complex)
chain 1: MSLVPATNYIYTPLNQLKGGTIVNVYGVVKFFKPPYLSKGTDYCSVVTIVDQTNVKLTCLLFSGNYEALPIIYKNGDIVRFHRLKIQVYKKETQGITSSGFASLTFEGTLGAPIIPRTSSKYFNFTTEDHKMVEALRVWASTHMSPSWTLLKLCDVQPMQYFDLTCQLLGKAEVDGASFLLKVWDGTRTPFPSWRVLIQDLVLEGDLSHIHRLQNLTIDILVYDNHVHVARSLKVGSFLRIYSLHTKLQSMNSENQTMLSLEFHLHGGTSYGRGIRVLPESNSDVDQLKKDLESANLTANQHSDVICQSEPDDSSPESDSVSLYEVERCQQLSATILTDHQYLERTPLCAILKQKAPQQYRIRAKLRSYKPRRLFQSVKLHCPKCHLLQEVPHEGDLDIIFQDGATKTPDVKLQNTSLYDSKIWTTKNQKGRKVAVHFVKNNGILPLSNECLLLIEGGTLSEICKLSNKFNSVIPVRSGHEDLELLDLSAPFLIQGTIHHYGCKQCSSLRSIQNLNSLVDKTSWIPSSVAEALGIVPLQYVFVMTFTLDDGTGVLEAYLMDSDKFFQIPASEVLMDDDLQKSVDMIMDMFCPPGIKIDAYPWLECFIKSYNVTNGTDNQICYQIFDTTVAEDVI
chain 2: MAGSGRLVLRPWIRELILGSETPSSPRAGQLLEVLQDAEAAVAGPSHAPDTSDVGATLLVSDGTHSVRCLVTREALDTSDWEEKEFGFRGTEGRLLLLQDCGVHVQVAEGGAPAEFYLQVDRFSLLPTEQPRLRVPGCNQDLDVQKKLYDCLEEHLSESTSSNAGLSLSQLLDEMREDQEHQGALVCLAESCLTLEGPCTAPPVTHWAASRCKATGEAVYTVPSSMLCISENDQLILSSLGPCQRTQGPEL
binding result (His6-MBP-Ctc1/Stn1/Ten1 [2]): binds

B3: POT1(SED)/GFP-TPP1 treated with λ protein phosphatase (complex)
chain 1: MSLVPATNYIYTPLNQLKGGTIVNVYGVVKFFKPPYLSKGTDYCSVVTIVDQTNVKLTCLLFSGNYEALPIIYKNGDIVRFHRLKIQVYKKETQGITSSGFASLTFEGTLGAPIIPRTSSKYFNFTTEDHKMVEALRVWASTHMSPSWTLLKLCDVQPMQYFDLTCQLLGKAEVDGASFLLKVWDGTRTPFPSWRVLIQDLVLEGDLSHIHRLQNLTIDILVYDNHVHVARSLKVGSFLRIYSLHTKLQSMNSENQTMLSLEFHLHGGTSYGRGIRVLPESNSDVDQLKKDLESANLTANQHSDVICQSEPDDSSPESDSVSLYEVERCQQLSATILTDHQYLERTPLCAILKQKAPQQYRIRAKLRSYKPRRLFQSVKLHCPKCHLLQEVPHEGDLDIIFQDGATKTPDVKLQNTSLYDSKIWTTKNQKGRKVAVHFVKNNGILPLSNECLLLIEGGTLSEICKLSNKFNSVIPVRSGHEDLELLDLSAPFLIQGTIHHYGCKQCSSLRSIQNLNSLVDKTSWIPSSVAEALGIVPLQYVFVMTFTLDDGTGVLEAYLMDSDKFFQIPASEVLMDDDLQKSVDMIMDMFCPPGIKIDAYPWLECFIKSYNVTNGTDNQICYQIFDTTVAEDVI
chain 2: MAGSGRLVLRPWIRELILGSETPSSPRAGQLLEVLQDAEAAVAGPSHAPDTSDVGATLLVSDGTHSVRCLVTREALDTSDWEEKEFGFRGTEGRLLLLQDCGVHVQVAEGGAPAEFYLQVDRFSLLPTEQPRLRVPGCNQDLDVQKKLYDCLEEHLSESTSSNAGLSLSQLLDEMREDQEHQGALVCLAESCLTLEGPCTAPPVTHWAASRCKATGEAVYTVPSSMLCISENDQLILSSLGPCQRTQGPEL
modifications: dephosphorylated with λ protein phosphatase | dephosphorylated with λ protein phosphatase
binding result (His6-MBP-Ctc1/Stn1/Ten1 [2]): binds

B4: His6-POT1(ESDL)/TwinStrep-GFP-TPP1 (complex)
chain 1: MSLVPATNYIYTPLNQLKGGTIVNVYGVVKFFKPPYLSKGTDYCSVVTIVDQTNVKLTCLLFSGNYEALPIIYKNGDIVRFHRLKIQVYKKETQGITSSGFASLTFEGTLGAPIIPRTSSKYFNFTTEDHKMVEALRVWASTHMSPSWTLLKLCDVQPMQYFDLTCQLLGKAEVDGASFLLKVWDGTRTPFPSWRVLIQDLVLEGDLSHIHRLQNLTIDILVYDNHVHVARSLKVGSFLRIYSLHTKLQSMNSENQTMLSLEFHLHGGTSYGRGIRVLPESNSDVDQLKKDLESANLTANQHSDVICQSEPDDSFPSSGSESDLVSLYEVERCQQLSATILTDHQYLERTPLCAILKQKAPQQYRIRAKLRSYKPRRLFQSVKLHCPKCHLLQEVPHEGDLDIIFQDGATKTPDVKLQNTSLYDSKIWTTKNQKGRKVAVHFVKNNGILPLSNECLLLIEGGTLSEICKLSNKFNSVIPVRSGHEDLELLDLSAPFLIQGTIHHYGCKQCSSLRSIQNLNSLVDKTSWIPSSVAEALGIVPLQYVFVMTFTLDDGTGVLEAYLMDSDKFFQIPASEVLMDDDLQKSVDMIMDMFCPPGIKIDAYPWLECFIKSYNVTNGTDNQICYQIFDTTVAEDVI
chain 2: MAGSGRLVLRPWIRELILGSETPSSPRAGQLLEVLQDAEAAVAGPSHAPDTSDVGATLLVSDGTHSVRCLVTREALDTSDWEEKEFGFRGTEGRLLLLQDCGVHVQVAEGGAPAEFYLQVDRFSLLPTEQPRLRVPGCNQDLDVQKKLYDCLEEHLSESTSSNAGLSLSQLLDEMREDQEHQGALVCLAESCLTLEGPCTAPPVTHWAASRCKATGEAVYTVPSSMLCISENDQLILSSLGPCQRTQGPEL
modifications: phosphorylated in insect cells (sites not identified)
binding result (His6-MBP-Ctc1/Stn1/Ten1 [3]): binds
binding result [4]: binds

Further lines, results first:

binding result (His6-MBP-Ctc1 [1]): binds
B1: Stn1 (natural protein)
chain: MQPGSSRCEEETPSLLWGLDPVFLAFAKLYIRDILDMKESRQVPGVFLYNGHPIKQVDVLGTVIGVRERDAFYSYGVDDSTGVINCICWKKLNTESVSAAPSAARELSLTSQLKKLQETIEQKTKIEIGDTIRVRGSIRTYREEREIHATTYYKVDDPVWNIQIARMLELPTIYRKVYDQPFHSSALEKEEALSNPGALDLPSLTSLLSEKAKEFLMENRVQSFYQQELEMVESLLSLANQPVIHSASSDQVNFKKDTTSKAIHSIFKNAIQLLQEKGLVFQKDDGFDNLYYVTREDKDLHRKIHRIIQQDCQKPNHMEKGCHFLHILACARLSIRPGLSEAVLQQVLELLEDQSDIVSTMEHYYTAF

binding result (His6-MBP-Ctc1 [5]): binds
binding result [6]: binds
B5: POT1(ESDL) (natural protein)
chain: MSLVPATNYIYTPLNQLKGGTIVNVYGVVKFFKPPYLSKGTDYCSVVTIVDQTNVKLTCLLFSGNYEALPIIYKNGDIVRFHRLKIQVYKKETQGITSSGFASLTFEGTLGAPIIPRTSSKYFNFTTEDHKMVEALRVWASTHMSPSWTLLKLCDVQPMQYFDLTCQLLGKAEVDGASFLLKVWDGTRTPFPSWRVLIQDLVLEGDLSHIHRLQNLTIDILVYDNHVHVARSLKVGSFLRIYSLHTKLQSMNSENQTMLSLEFHLHGGTSYGRGIRVLPESNSDVDQLKKDLESANLTANQHSDVICQSEPDDSFPSSGSESDLVSLYEVERCQQLSATILTDHQYLERTPLCAILKQKAPQQYRIRAKLRSYKPRRLFQSVKLHCPKCHLLQEVPHEGDLDIIFQDGATKTPDVKLQNTSLYDSKIWTTKNQKGRKVAVHFVKNNGILPLSNECLLLIEGGTLSEICKLSNKFNSVIPVRSGHEDLELLDLSAPFLIQGTIHHYGCKQCSSLRSIQNLNSLVDKTSWIPSSVAEALGIVPLQYVFVMTFTLDDGTGVLEAYLMDSDKFFQIPASEVLMDDDLQKSVDMIMDMFCPPGIKIDAYPWLECFIKSYNVTNGTDNQICYQIFDTTVAEDVI
modifications: phosphorylated in insect cells (sites not identified)
